Source: PMC5779224, “Autoinhibition of ankyrin-B/G membrane target bindings by intrinsically disordered segments from the tail regions” (eLife, 2017)
One block for each binder: values may come before it.

Experiments:
Conditions in all cases: both partners purified
[1] = target: T1, AnkG 38–855 (AnkG MBD-AI-c protein; MBD + partial AI-c) (rat, UniProt O70511-1 38-855); experiment: ITC; VP-ITC MicroCal, 25 °C; proteins in 50 mM Tris-HCl pH 7.8, 1 mM DTT, 1 mM EDTA with 100 mM or 500 mM NaCl as required; who was titrated is not told
T1 construct: numbers count on: rat AnkG NM_001033984.1 (MBD-UPA); also called AnkG WT; source: E. coli BL21 (DE3), purified (Ni2+-NTA, size exclusion)
T1 sequence (looked up): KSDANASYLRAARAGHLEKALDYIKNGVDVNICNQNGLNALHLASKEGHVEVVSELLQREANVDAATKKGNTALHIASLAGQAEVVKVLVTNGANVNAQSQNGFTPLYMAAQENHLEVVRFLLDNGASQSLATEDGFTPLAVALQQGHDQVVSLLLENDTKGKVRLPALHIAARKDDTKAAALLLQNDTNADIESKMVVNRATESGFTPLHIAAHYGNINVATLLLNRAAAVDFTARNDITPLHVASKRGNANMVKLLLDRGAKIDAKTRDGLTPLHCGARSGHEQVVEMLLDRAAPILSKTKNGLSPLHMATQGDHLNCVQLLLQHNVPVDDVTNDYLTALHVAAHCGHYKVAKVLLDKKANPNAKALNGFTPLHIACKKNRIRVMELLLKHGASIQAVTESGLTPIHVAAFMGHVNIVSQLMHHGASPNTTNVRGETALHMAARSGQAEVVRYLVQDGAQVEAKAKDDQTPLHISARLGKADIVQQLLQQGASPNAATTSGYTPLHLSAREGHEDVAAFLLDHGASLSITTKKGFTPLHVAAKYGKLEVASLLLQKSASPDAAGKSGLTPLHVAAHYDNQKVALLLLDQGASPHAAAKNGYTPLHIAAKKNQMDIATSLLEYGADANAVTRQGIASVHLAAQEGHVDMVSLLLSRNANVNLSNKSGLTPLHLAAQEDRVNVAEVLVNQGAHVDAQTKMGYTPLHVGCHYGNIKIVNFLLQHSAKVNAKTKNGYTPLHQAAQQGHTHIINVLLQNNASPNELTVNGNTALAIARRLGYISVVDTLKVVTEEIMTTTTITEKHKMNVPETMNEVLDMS

[2] = target: T2, AnkB 28–847 (MBD + partial AI-c) (human, UniProt Q01484-2 28-847); experiment: as above
T2 construct: ankyrin-B (AnkB), human 220 kDa isoform, residues 28-847: MBD and a short 20-residue linker; numbers count on: human 220 kDa AnkB NM_020977.3; also called extended MBD with a short 20-residue linker; source: E. coli BL21 (DE3), purified (Ni2+-NTA, size exclusion)
T2 sequence (looked up): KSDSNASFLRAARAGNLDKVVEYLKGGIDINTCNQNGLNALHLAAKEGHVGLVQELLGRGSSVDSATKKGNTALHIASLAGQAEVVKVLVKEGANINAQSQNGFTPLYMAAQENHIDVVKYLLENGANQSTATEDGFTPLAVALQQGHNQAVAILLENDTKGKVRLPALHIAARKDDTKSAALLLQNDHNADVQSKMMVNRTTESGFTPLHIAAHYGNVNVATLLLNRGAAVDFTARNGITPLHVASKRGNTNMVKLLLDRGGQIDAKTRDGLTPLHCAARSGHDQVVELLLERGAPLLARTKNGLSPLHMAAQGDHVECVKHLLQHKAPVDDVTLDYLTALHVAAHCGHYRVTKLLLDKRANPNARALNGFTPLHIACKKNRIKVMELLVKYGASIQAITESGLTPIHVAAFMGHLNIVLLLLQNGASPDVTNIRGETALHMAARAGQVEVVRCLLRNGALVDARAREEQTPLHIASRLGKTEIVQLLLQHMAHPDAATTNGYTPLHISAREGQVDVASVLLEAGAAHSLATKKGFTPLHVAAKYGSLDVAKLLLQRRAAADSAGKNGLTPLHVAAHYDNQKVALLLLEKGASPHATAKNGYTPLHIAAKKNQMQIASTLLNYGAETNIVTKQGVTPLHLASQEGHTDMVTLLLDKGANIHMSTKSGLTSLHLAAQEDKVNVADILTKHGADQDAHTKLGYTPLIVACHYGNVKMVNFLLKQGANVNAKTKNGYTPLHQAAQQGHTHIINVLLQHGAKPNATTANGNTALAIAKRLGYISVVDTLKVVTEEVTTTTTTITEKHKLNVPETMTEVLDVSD

[3] = target: T3, AnkB_MBD (AnkB ANK repeats only, aa 28–827) (human, UniProt Q01484-2 28-827); experiment: ITC; VP-ITC MicroCal, 25 °C; buffer containing 500 mM NaCl, due to poor quality of AnkB 28-827 in 100 mM NaCl buffer
T3 construct: ankyrin-B (AnkB), human 220 kDa isoform, residues 28-827: the 24 ANK repeats (MBD), no linker; numbers count on: human 220 kDa AnkB NM_020977.3; Poor quality in 100 mM NaCl buffer; also called AnkB 28–827; source: E. coli BL21 (DE3), purified (Ni2+-NTA, size exclusion)
T3 sequence (looked up): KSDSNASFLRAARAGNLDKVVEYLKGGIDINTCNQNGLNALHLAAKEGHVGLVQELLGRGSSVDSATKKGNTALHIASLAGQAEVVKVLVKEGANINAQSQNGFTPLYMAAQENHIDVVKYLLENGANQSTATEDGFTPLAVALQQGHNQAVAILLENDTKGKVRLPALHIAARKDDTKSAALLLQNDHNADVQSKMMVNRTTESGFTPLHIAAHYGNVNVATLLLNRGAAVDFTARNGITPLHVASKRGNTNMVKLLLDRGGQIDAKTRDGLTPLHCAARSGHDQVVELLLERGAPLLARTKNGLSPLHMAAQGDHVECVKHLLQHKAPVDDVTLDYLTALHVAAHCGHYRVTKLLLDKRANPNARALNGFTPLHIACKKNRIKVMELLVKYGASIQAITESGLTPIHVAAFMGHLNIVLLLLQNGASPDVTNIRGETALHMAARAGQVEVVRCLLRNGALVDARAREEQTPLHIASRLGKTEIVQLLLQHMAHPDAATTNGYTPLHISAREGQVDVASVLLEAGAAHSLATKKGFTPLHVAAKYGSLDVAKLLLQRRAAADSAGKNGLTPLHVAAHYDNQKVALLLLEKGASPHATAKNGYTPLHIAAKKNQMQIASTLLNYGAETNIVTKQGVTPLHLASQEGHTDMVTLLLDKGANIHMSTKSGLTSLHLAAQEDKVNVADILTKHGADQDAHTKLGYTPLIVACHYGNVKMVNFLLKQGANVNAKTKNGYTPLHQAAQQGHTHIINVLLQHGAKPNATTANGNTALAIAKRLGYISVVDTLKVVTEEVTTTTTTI

[4] = target: T3, AnkB_MBD (AnkB ANK repeats only, aa …); experiment: ITC; VP-ITC MicroCal, 25 °C; proteins in 50 mM Tris-HCl pH 7.8, 1 mM DTT, 1 mM EDTA with 100 mM or 500 mM NaCl as required; who was titrated is not told

binding result [1]: binds
B1: AnkG_AI-b (aa 875–903) (domain or fragment, rat, UniProt O70511-1 875-903, looked up)
chain: SDGEEGEDAITGDTDKYLGPQDLKELGDD
notes: numbers count on: rat AnkG NM_001033984.1 (MBD-UPA); source: E. coli BL21 (DE3), purified (Ni2+-NTA, size exclusion)

binding result [2]: binds
B2: AnkB_AI-b (aa 865–896) (domain or fragment, human, UniProt Q01484-2 865-896, looked up)
chain: EDLKELGDDSLPSSQFLDGMNYLRYSLEGGRS
notes: numbers count on: human 220 kDa AnkB NM_020977.3; also called 32-aa fragment; source: E. coli BL21 (DE3), purified (Ni2+-NTA, size exclusion)

Kd [3]: ~0.044 µM | Kd [2]: ~4.2 µM
B3: AnkB entire linker (aa 828–965) (domain or fragment, human, UniProt Q01484-2 828-965, looked up)
chain: TEKHKLNVPETMTEVLDVSDEEGDDTMTGDGGEYLRPEDLKELGDDSLPSSQFLDGMNYLRYSLEGGRSDSLRSFSSDRSHTLSHASYLRDSAVMDDSVVIPSHQVSTLAKEAERNSYRLSWGTENLDNVALSSSPIH
notes: numbers count on: human 220 kDa AnkB NM_020977.3; also called Linker (contains AI-c + AI-b); AnkB linker region; source: E. coli BL21 (DE3), purified (Ni2+-NTA, size exclusion)

binding result [1]: binds
B4: AnkG long linker (aa 837–920; AI-c + AI-b) (domain or fragment, rat, UniProt O70511-1 837-920, looked up)
chain: TEKHKMNVPETMNEVLDMSDDEVGKASAPEKLSDGEYISDGEEGEDAITGDTDKYLGPQDLKELGDDSLPAEGYVGFSLGARSA
notes: as for B1

binding result [4]: binds
B5: AnkB_AI-c Asn834Lys (domain or fragment, human, UniProt Q01484-2 828-852, looked up)
chain: TEKHKLKVPETMTEVLDVSDEEGDD
notes: numbers count on: human 220 kDa AnkB NM_020977.3; source: E. coli BL21 (DE3), purified (Ni2+-NTA, size exclusion)
